The values that follow come from doi:10.1101/2021.01.28.428602 (bioRxiv, 2021).

Like-named read-outs stand apart in the source and are kept apart here.

In test [1] the target is T1, α5β3γ2 GABAA receptor on COS7 cells (Rattus norvegicus (gamma-2 rat or mouse …, UniProt P19969;P63079;P18508)). Briefly: immunostaining of cells or tissue.
For test [2], the target named is α1β3 GABAA receptor on COS7 cells (Rattus norvegicus (construct of ref. 7), UniProt P62813;P63079). Briefly: immunostaining of cells or tissue.
Test [3] concerns the target T2, α2β3γ2 GABAA receptor on COS7 cells (Rattus norvegicus (gamma-2 rat or mouse …, UniProt P23576;P63079;P18508)). Description: immunostaining of cells or tissue.
Test [4] concerns the target α1β3γ2 GABAA receptor on COS7 cells (Rattus norvegicus (gamma-2 rat or …, UniProt P62813;P63079;P18508)). Description: immunostaining of cells or tissue.
In test [5] the target is β3γ2 GABAA receptor subunits on COS7 cells (Rattus norvegicus (gamma-2 rat or …, UniProt P63079;P18508)). Briefly: immunostaining of cells or tissue.
Test [6] concerns the target T3, α3β3γ2 GABAA receptor on COS7 cells (Rattus norvegicus (gamma-2 rat or mouse …, UniProt P20236;P63079;P18508)). Briefly: immunostaining of cells or tissue.
For test [7], the target named is T4, α4β3γ2 GABAA receptor on COS7 cells (Rattus norvegicus (gamma-2 rat or mouse …, UniProt P28471;P63079;P18508)). Briefly: immunostaining of cells or tissue.
Test [8] has as its target α1β2γ2 GABAA receptor on COS7 cells (Rattus norvegicus (gamma-2 rat or …, UniProt P62813;P63138;P18508)). Description: immunostaining of cells or tissue.
Test [9] addresses GABAA receptor β3 subunit alone on COS7 cells (Rattus norvegicus (construct of ref. 7), UniProt P63079). Description: immunostaining of cells or tissue.
Test [10] has as its target GABAA receptor γ2 subunit alone on COS7 cells (Rattus norvegicus (rat or mouse …, UniProt P18508)). Description: immunostaining of cells or tissue.
In test [11] the target is rat α1β3γ2 GABAA receptor on HEK293T cells (Rattus norvegicus, UniProt P62813;P63079;P18508). Description: flow cytometry on cells. (In general: A flow cytometer gives signals particle by particle.)
The target in test [12] is rat α1β3 GABAA receptor on HEK293T cells (Rattus norvegicus, UniProt P62813;P63079). Briefly: immunostaining of cells or tissue.
The target of test [13] is T1, α5β3γ2 GABAA receptor on COS7 cells. Description: immunostaining of cells or tissue. This is another data set of the same source.
Test [14] addresses T2, α2β3γ2 GABAA receptor on COS7 cells. Briefly: immunostaining of cells or tissue. The source holds these as a separate data set.
Test [15] addresses T3, α3β3γ2 GABAA receptor on COS7 cells. Description: immunostaining of cells or tissue. This is another data set of the same source.
In test [16] the target is T4, α4β3γ2 GABAA receptor on COS7 cells. Briefly: immunostaining of cells or tissue. The source holds these as a separate data set.

T1 sequence (P19969 26-464, chain 1 of 3): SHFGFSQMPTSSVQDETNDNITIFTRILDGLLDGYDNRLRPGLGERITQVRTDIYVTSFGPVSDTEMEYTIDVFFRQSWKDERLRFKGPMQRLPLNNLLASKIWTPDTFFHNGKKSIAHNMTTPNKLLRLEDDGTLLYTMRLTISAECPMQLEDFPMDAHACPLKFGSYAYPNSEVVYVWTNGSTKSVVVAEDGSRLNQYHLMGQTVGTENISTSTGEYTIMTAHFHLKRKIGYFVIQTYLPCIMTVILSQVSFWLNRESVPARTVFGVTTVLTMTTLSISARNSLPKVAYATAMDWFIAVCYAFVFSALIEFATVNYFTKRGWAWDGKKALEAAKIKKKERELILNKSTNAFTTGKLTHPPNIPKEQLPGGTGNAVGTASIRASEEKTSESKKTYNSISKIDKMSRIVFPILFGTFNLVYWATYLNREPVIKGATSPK
T1 sequence (P63079 26-473, chain 2 of 3): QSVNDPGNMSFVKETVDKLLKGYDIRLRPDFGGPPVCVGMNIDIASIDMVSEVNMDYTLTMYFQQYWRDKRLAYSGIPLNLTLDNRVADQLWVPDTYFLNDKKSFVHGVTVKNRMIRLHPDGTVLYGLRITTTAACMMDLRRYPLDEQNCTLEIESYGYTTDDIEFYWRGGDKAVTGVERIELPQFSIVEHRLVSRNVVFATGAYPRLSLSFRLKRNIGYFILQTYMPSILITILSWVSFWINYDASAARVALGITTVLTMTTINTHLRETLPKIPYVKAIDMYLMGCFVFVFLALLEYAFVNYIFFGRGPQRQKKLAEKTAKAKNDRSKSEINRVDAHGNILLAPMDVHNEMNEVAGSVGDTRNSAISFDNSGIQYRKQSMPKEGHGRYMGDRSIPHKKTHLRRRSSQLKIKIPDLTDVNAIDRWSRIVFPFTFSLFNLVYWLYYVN
T1 sequence (P18508 39-466, chain 3 of 3): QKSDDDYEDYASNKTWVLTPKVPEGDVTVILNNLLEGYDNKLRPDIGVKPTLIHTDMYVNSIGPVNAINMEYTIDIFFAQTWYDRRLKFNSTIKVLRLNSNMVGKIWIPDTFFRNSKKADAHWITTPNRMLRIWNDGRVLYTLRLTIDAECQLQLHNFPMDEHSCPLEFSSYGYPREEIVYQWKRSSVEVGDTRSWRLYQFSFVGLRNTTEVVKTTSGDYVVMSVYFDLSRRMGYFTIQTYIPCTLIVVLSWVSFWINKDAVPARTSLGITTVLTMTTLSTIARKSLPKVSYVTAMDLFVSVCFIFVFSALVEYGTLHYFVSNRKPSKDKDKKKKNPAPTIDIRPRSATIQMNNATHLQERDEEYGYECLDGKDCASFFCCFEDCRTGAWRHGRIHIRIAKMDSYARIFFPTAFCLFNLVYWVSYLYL
T3 sequence (P20236 29-493, chain 1 of 3): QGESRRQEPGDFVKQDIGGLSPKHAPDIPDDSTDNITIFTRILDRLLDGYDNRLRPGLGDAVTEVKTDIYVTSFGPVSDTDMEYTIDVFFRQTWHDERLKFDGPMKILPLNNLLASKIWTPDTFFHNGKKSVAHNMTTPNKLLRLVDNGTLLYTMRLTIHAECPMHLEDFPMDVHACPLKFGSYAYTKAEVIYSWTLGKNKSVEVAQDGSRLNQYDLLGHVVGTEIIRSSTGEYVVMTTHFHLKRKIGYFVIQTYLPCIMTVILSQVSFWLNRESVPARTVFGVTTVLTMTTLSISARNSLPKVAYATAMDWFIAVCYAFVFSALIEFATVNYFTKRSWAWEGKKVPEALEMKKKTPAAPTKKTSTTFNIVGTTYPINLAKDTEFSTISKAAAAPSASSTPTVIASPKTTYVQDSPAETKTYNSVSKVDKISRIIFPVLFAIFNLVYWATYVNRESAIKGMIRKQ
T3 sequence (P63079 26-473, chain 2 of 3): as the sequence (P63079 26-473, chain 2 of 3) above
T3 sequence (P18508 39-466, chain 3 of 3): as the sequence (P18508 39-466, chain 3 of 3) above
T4 sequence (P28471 36-552, chain 1 of 3): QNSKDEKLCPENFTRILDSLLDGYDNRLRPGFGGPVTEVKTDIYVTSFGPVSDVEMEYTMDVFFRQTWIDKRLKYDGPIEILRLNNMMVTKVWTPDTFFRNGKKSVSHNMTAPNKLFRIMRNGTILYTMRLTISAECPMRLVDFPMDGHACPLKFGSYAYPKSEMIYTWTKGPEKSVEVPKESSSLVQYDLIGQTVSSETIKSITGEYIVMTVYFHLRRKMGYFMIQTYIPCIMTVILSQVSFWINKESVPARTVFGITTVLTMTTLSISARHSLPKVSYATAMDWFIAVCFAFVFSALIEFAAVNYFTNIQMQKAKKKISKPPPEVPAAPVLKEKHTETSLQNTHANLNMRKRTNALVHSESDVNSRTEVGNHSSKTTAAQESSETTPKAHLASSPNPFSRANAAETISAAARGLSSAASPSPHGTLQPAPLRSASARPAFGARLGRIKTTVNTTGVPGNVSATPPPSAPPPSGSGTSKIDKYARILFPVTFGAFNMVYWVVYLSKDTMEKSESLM
T4 sequence (P63079 26-473, chain 2 of 3): as the sequence (P63079 26-473, chain 2 of 3) above
T4 sequence (P18508 39-466, chain 3 of 3): as the sequence (P18508 39-466, chain 3 of 3) above
Chain of GABAA receptor β3 subunit alone on COS7 cells (P63079 26-473): as the sequence (P63079 26-473, chain 2 of 3) above
Chain of GABAA receptor γ2 subunit alone on COS7 cells (Rattus norvegicus (P18508 39-466): as the sequence (P18508 39-466, chain 3 of 3) above

B1: human monoclonal GABAAR antibody #113-175 (antibody, V domains shown)
VH: EVQLLESGEGLVQPGGSLRLSCAASGFTFKTYAMSWVRQAPGKGLEWVSAISGSGASTYYADFVEGRFTISRDNSKNTLYLQMNSLRAEDTAVYYCAKEPPAMVWFGGGYFDYWGQGTLVTVSS
VL: EIVLTQSPATLSLSPGERATLSCRASQSVSSYLAWYQQKPGQAPRLLIYDASNRATGIPARFSGSGSGTDFTLTISSLEPEDFAVYYCQQRSNWPPYSFGQGTKLEIK
For B1, the binding result is recorded as “no binding (tested: 5 μg/ml)” in test [1]; “no binding (tested: 5 μg/ml)” in test [2]; “no binding (tested: 5 μg/ml)” in test [3]; “binds” in [4]; “no binding (tested: 5 μg/ml)” in [5]; “no binding (tested: 5 μg/ml)” in test [6]. Moreover, the binding result in test [7] is “no binding (tested: 5 μg/ml)”; in test [8], “binds”; in test [9] it was “no binding (tested: 5 μg/ml)”; in test [10], “no binding (tested: 5 μg/ml)”; in test [11] it was “binds”.

B2: human monoclonal GABAAR antibody #113-115 (antibody, V domains shown)
VH: QVQLVQSGAEVKKPGASVKVSCKASGYTFISYDINWVRQATGQGLEWMGGMDPKSGNTGYAQKFQGRVTMTTNTAISTAYMELSSLRSEDTAVYYCVRGEQSYDRTGYSDWFDPWGQGTLVTVSS
VL: not shown
B2: the binding result was “binds” in test [12]; “binds” in test [2]; “binds” in test [4]; “no binding (tested: 5 μg/ml)” in test [9]; “no binding (tested: 5 μg/ml)” in [10]; “no binding” in test [13]. Besides, the binding result in test [14] is “no binding”; in [15] it was “no binding”; in [16] it was “no binding”; in test [11], “binds”.
